Measurements published in patent US20140322196A1.

Legend:
[1] = target: Hemagglutinin (HA) of Avian 29/05/06 H5N1 (inactivated vaccine) (Influenza A virus Avian 29/05/06 H5N1); assay: cell-based or functional assay
[2] = target: Hemagglutinin (HA) of Influenza SW [change] 1089/09 swine pandemic H1N1 (inactivated subunits, vaccine) (Influenza A virus SW [change] swine pandemic H1N1); assay: cell-based or functional assay

B1: bLf C-lobe (aa 285-689) (protein)
chain: SFQLFGSPPGQRDLLFKDSALGFLRIPSKVDSALYLGSRYLTTLKNLRETAEEVKARYTRVVWCAVGPEEQKKCQQWSQQSGQNVTCATASTTDDCIVLVLKGEADALNLDGGYIYTAGKCGLVPVLAENRKSSKHSSLDCVLRPTEGYLAVAVVKKANEGLTWNSLKDKKSCHTAVDRTAGWNIPMGLIVNQTGSCAFDEFFSQSCAPGADPKSRLCALCAGDDQGLDKCVPNSKEKYYGYTGAFRCLAEDVGDVAFVKNDTVWENTNGESTADWAKNLNREDFRLLCLDGTRKPVTEAQSCHLAVAPNHAVVSRSDRAAHVKQVLLHQQALFGKNGKNCPDKFCLFKSETKNLLFNDNTECLAKLGGRPTYEEYLGTEYVTAIANLKKCSTSPLLEACAFLTR
[1]
  activity on viral hemagglutination (HI): 2.9 pM
[2]
  activity on viral hemagglutination (HI): 46.5 fM

B2: bLf C-lobe (aa 345-689) (protein)
chain: VVWCAVGPEEQKKCQQWSQQSGQNVTCATASTTDDCIVLVLKGEADALNLDGGYIYTAGKCGLVPVLAENRKSSKHSSLDCVLRPTEGYLAVAVVKKANEGLTWNSLKDKKSCHTAVDRTAGWNIPMGLIVNQTGSCAFDEFFSQSCAPGADPKSRLCALCAGDDQGLDKCVPNSKEKYYGYTGAFRCLAEDVGDVAFVKNDTVWENTNGESTADWAKNLNREDFRLLCLDGTRKPVTEAQSCHLAVAPNHAVVSRSDRAAHVKQVLLHQQALFGKNGKNCPDKFCLFKSETKNLLFNDNTECLAKLGGRPTYEEYLGTEYVTAIANLKKCSTSPLLEACAFLTR
[1]
  activity on viral hemagglutination (HI): 2.4 pM
[2]
  activity on viral hemagglutination (HI): 46.5 fM
